Results from patent publication US20170275350A1 (Scripps Research, published 2017).

B1: PAR1 peptide TR47-66 (peptide)
peptide: NPNDKYEPFWEDEEKNESGL
B2: TFLL peptide (TR42-51 with S42T) (peptide)
peptide: TFLLRNPNDK

Tests used:
[1] = tested on: Synthetic PAR1 N-terminal peptide TR33-62
[2] = molecular target: Protease activated receptor-1 (PAR1), endogenous on EA.hy.926 endothelial cells (human) (UniProt P25116); experiment: cell-based or functional assay
[3] = molecular target: T1, Protease activated receptor-1 (PAR1), endogenous on EA.hy.926 endothelial cells (human, UniProt P25116 42-425); experiment: cell-based or functional assay
T1 sequence: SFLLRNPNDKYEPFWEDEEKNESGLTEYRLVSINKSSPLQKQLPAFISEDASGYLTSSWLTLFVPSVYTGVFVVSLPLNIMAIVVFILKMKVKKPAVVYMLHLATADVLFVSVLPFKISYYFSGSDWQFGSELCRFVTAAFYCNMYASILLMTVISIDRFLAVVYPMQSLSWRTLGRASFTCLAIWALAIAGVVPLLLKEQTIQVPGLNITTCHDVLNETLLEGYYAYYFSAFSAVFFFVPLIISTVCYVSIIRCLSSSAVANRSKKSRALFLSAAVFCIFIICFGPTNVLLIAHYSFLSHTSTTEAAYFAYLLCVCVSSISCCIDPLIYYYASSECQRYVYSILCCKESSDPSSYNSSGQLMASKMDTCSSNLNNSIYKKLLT

Sequence of Synthetic PAR1 N-terminal peptide TR33-62 (chain, as listed by the source): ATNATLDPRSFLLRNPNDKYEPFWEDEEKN

Row | Molecule | cleavage of the peptide (reverse phase HPLC, MALDI-TOF of fragments) [1] | ERK1/2 phosphorylation in EA.hy.926 cells (immunoblot, ratio to total ERK1/2) [3] [fold] | further results
1 | Thrombin | the two fragments produced by thrombin (peaks A and D) corresponded to masses of 1,001 and 2,670 for cleavage at Arg^41 |  | 
2 | Activated Protein C (from UniProt P04070 43-461) (enzyme) |  |  | ERK1/2 phosphorylation in EA.hy.926 cells (immunoblot, ratio to total ERK1/2) [2]: 1.5 fold; decrease of ATAP2 signal relative to WEDE15, on cell Western [2]: 50%
3 | Activated Protein C | APC cleaves this PAR1 peptide at Arg^46 as well as at Arg^41 |  | 
4 | B1 |  | 1.5 | 
5 | B2 |  | 3 | 
